Our source for the stoichiometry N (Ru-MtrC per MtrAB) values is article PMC8415449.

In this test the target is MtrAB complex (Shewanella oneidensis MR-1). Briefly: AUC; sedimentation equilibrium (SE-AUC), 20°C, 8,000, 10,000 and 12,000 rpm, absorbance at 410 nm; 50 mM sodium phosphate, 50 mM NaCl, 0.1% (v/v) Triton X-100, pH 7.5; 0.4 uM single proteins, 0.25 uM + 0.25 uM mixture; fits to a single non-interacting species.

For “Ru-MtrC (soluble Y657C MtrC labelled at Cys657 with a Ru(II)-bipyridine dye) (from UniProt Q8EG34 26-671) (natural protein)”, the stoichiometry N (Ru-MtrC per MtrAB) is 1.
